The values below come from patent publication US20170247459A1, “COMBINATION THERAPY OF ANTIBODIES AGAINST HUMAN CSF-1R AND USES THEREOF” (HOFFMANN-LA ROCHE INC., priority 2012, published 2017).

Common to all, as to assay: cell-based or functional assay
The target of experiment [1] is CSF-1R on cynomolgous monocytes (cynomolgous).
Experiment [2] deals with human wildtype CSF-1R (wt CSF-1R), full-length, on cells (human) (UniProt P07333).
The target of experiment [3] is human mutant CSF-1R L301S Y969F, full-length, on NIH 3T3 cells (human) (UniProt P07333).

“Anti CSF-1R SC 2-4A5 (Santa Cruz Biotechnology, US) (antibody)”: in experiment [1], the % inhibition (of survival) = (100%-% survival), cynomolgous monocytes at 5 µg/ml antibody worked out at 69% and the % survival of cynomolgous monocytes at 5 µg/ml antibody (CellTiterGlo) turned out to be 31%. In experiment [2], this substance came in with a wtCSF-1R IC30 (cell viability, 3D spheroids, CellTiterGlo) of 16.6 µg/mL and a wtCSF-1R IC50 (cell viability, 3D spheroids, CellTiterGlo) of 10 µg/mL. In experiment [3], this substance came in with a Mutant CSF-1R IC30 (cell viability, 3D spheroids, CellTiterGlo) of 2.56 µg/mL and a Mutant CSF-1R IC50 (cell viability, 3D spheroids, CellTiterGlo) of 10 µg/mL.
Consider “goat polyclonal anti-CSF-1R antibody ab10676 (abcam)”, for which the wtCSF-1R IC30 (cell viability, 3D spheroids, CellTiterGlo) in experiment [2] was determined as 14.2 µg/mL. This substance gave a Mutant CSF-1R IC30 (cell viability, 3D spheroids, CellTiterGlo) in experiment [3] of over 20 µg/mL.
